Measured values published in patent publication US20230012273A1 (Boehringer Ingelheim, published 2023).

Experiments:
[1] = target: T1, cynomolgus SIRPβ1 (XP_005568598) extracellular domain + His-tag (cynomolgus monkey); assay: SPR
T1 construct: SPR analyte; also called Cyno SIRPβ1 XP_005568598; cynoSIRPβ1; not shown: His-tag
T1 chain: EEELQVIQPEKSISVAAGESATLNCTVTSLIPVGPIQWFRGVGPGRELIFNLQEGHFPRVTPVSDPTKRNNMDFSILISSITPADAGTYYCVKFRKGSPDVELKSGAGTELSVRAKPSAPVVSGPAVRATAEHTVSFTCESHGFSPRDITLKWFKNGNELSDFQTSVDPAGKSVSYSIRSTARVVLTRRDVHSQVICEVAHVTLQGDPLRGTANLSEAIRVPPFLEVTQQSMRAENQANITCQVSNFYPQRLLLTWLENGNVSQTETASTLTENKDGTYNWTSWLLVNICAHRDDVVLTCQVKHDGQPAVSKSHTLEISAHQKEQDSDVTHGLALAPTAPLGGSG
Summary of the method: (§1)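 Steps: chip deactivated with 1M ethanolamine HCl for 420 sec at 10 μl/min; anti-SIRPα antibody captured; two-fold serial dilutions of His-tagged SIRP extracellular domain injected 300 sec at 30 μl/min; dissociation monitored 600 sec. All in 1×HBS-EP+ running buffer.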

[2] = target: T2, cynomolgus SIRPγ (XP_005568591) extracellular domain + His-tag (cynomolgus monkey, UniProt Q9P1W8 29-359 (human entry)); assay: SPR
T2 construct: SPR analyte; also called Cyno SIRPγ XP_005568591; cynoSIRPγ; not shown: His-tag
T2 chain: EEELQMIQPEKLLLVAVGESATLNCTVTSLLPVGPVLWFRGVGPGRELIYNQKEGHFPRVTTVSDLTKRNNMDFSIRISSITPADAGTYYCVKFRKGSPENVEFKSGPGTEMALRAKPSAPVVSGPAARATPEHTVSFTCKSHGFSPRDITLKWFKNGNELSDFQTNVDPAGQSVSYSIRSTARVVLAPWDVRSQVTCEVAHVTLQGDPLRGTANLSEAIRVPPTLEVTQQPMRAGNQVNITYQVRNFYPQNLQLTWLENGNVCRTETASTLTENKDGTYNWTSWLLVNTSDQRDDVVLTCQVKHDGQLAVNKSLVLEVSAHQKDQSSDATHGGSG
Summary of the method: as §1

[3] = target: T3, full-length human SIRPγ EN→DD on Expi-CHO cells (human, UniProt Q9P1W8 29-387); assay: flow cytometry, Expi-CHO cells expressing full-length human SIRPγ EN→DD
T3 construct: the entry already carries the change (PENV to PDDV)
T3 chain: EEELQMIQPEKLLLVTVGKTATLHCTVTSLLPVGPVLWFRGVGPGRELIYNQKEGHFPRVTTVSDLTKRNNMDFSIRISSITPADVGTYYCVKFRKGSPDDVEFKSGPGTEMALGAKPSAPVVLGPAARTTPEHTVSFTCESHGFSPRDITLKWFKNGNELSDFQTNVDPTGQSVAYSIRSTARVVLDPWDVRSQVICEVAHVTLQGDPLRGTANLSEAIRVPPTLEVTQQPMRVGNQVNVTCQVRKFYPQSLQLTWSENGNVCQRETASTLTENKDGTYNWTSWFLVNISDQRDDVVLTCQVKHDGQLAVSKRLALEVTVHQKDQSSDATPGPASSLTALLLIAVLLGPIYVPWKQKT
Description: Expi-CHO parental cells are transduced with lentiviruses containing either full-length wild-type human SIRPγ ([…]) or full-length human SIRPγ with amino acid point mutations (Table 64) and sorted to achieve matching expression levels. These cells are blocked with donkey IgG and incubated on ice with increasing concentrations of antibodies for 60 minutes, washed and stained with AF647-conjugated donkey F(ab′)₂ anti-human IgG antibodies. Stained cells are washed, fixed, and analyzed by flow cytometry. Median fluorescent intensity is determined and used as a measure of antibody binding.

[4] = target: T4, cynomolgus SIRPα extracellular domain + His-tag (XP_015313155) (cynomolgus monkey); assay: SPR, Ab captured, ECD-His analyte
T4 construct: also called CySIRPα XP_015313155; cynoSIRPα
T4 chain: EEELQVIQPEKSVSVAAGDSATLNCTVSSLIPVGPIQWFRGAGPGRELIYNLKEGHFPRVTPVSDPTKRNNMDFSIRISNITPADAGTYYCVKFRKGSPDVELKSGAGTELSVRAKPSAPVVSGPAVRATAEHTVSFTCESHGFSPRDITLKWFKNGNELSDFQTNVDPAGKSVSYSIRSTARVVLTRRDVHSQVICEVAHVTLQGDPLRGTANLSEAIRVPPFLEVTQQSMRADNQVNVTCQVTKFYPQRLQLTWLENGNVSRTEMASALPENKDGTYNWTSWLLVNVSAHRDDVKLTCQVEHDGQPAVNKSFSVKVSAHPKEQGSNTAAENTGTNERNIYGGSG
Summary of the method: as §1

[5] = target: T5, cynomolgus SIRPβ1v3 extracellular domain + His-tag (XP_005568593) (cynomolgus monkey); assay: SPR, Ab captured, ECD-His analyte
T5 construct: also called Cyno SIRPβ1v3; cynoSIRPβ1v3
T5 chain: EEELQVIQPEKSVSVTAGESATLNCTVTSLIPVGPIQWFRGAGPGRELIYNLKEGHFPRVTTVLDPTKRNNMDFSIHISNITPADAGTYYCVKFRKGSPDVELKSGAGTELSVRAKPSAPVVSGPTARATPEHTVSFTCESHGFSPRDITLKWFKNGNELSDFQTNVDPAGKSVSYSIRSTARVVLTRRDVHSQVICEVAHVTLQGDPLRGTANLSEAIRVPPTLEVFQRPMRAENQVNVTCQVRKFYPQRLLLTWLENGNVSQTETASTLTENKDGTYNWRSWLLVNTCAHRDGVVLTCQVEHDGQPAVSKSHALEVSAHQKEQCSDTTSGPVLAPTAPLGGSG
Summary of the method: as §1

Binder | binding result [1] | binding result [2] | binding result [3] | Kd [4] | Kd [5]
Antibody E (antibody, human IgG1, kappa, L234A L235A) heavy: not shown light: DIVMTQSPLSLPVTPGEPASISCKSSQSLLYSNGYNYLDWYLQRPGQSPQLLIYLGSNRASGVPDRFSGSGSGTDFTLKISRVEAEDVGVFYCMQALQTPLTFGGGTKVEIKRTVAAPSVFIFPPSDEQLKSGTASVVCLLNNFYPREAKVQWKVDNALQSGNSQESVTEQDSKDSTYSLSSTLTLSKADYEKHKVYACEVTHQGLSSPVTKSFNRGEC | no binding (tested: 1000 nM) | no binding (tested: 1000 nM) | no binding (tested: about 67 nM) | – | –
Antibody E22 (antibody, human IgG1, kappa, L234A L235A, V domains shown) VH: QVQLQESGPGLVKPSETLSLTCTVSGGSIRDYYWSWIRQPPGKGLEWIGFIYYNGRTFYQSSLKSRVTISLDTSKNQFSLKMTSVTAADTAVYYCARVRAYSGIGLDGTDVWGQGTTVTVSS VL: DIVMTQSPLSLPVTPGEPASISCRSSQSLLYSTGYTYLDWYLQRPGQSPQLLIYGGSSRASGVPDRFSGSGSGTDFTLKISRVEAEDVGVFYCGQALQTPLTFGQGTKVEIKR | no binding (tested: 1000 nM) | no binding (tested: 1000 nM) | no binding (tested: about 67 nM) | – | –
Antibody A (antibody, human IgG1, kappa, L234A L235A) heavy: not shown light: DIQMTQSPSSLSASVGDRVTITCRASQDINNYLAWFQQKPGKAPKSLIYTASSLHSGVPSKFSGSGSGTDFTLTISSLQPEDFATYYCQQYVSYPYTFGQGTKLEIKRTVAAPSVFIFPPSDEQLKSGTASVVCLLNNFYPREAKVQWKVDNALQSGNSQESVTEQDSKDSTYSLSSTLTLSKADYEKHKVYACEVTHQGLSSPVTKSFNRGEC | – | – | – | 165 nM | 246 nM
Antibody A10 (antibody, human IgG1, kappa, L234A L235A) heavy: not shown light: DIQMTQSPSSLSASVGDRVTITCRASQDINNYLAWFQQKPGKAPKSLIYTASSLHSGVPSKFSGSGSGTDFTLTISSLQPEDFATYYCQQYVSYPYTFGQGTKLEIKRTVAAPSVFIFPPSDEQLKSGTASVVCLLNNFYPREAKVQWKVDNALQSGNSQESVTEQDSKDSTYSLSSTLTLSKADYEKHKVYACEVTHQGLSSPVTKSFNRGEC | – | – | – | 180 nM | 271 nM
